Source: patent publication WO2001000678A1 (dated 2001)

Target: HIV-1 MN viral lysate (native gp120) (HIV-1 isolate MN, UniProt P05877 32-513)
Assay: ELISA, biotinylated Fab on viral lysate; reference HIV-1 IIIb lysate

B1: Fab 7 (Fab, V domains shown)
VH: EVQLQESGPGLVKPSETLSLTCTVSGGSISSSSYYWGWIRQPPGKGLEWIGSIYYSGSTYYNPSLKSRVTISVDTSKNQFSLKLSSVTAAYTAVYYCARRCTSGVCYGAFDYWGQGTPVTVSS
VL: DLVMTQSPSFLSASVGDRVTITCRASQGISSYLAWYQQKSGKAPKLLIYGTSILQSGVPSRFSGSGSGTESTLTISSLQPEDFATYYCQQLNSYPITFGQGTRLEIK
In the case of B1, the “binding relative to the level seen with IIIb” value is reported as about 50%.
